These results are taken from patent publication US20250269003A1, “NANO-ENHANCED VACCINE” (University of Virginia Patent Foundation, priority 2022, published 2025).

Data set [1] in a line: Ideal pH range for peptide stability and dissolution. Conditions: pH range required for stability and dissolution of the peptide. The format is physicochemical. From the text: (§1) Encapsulation of Melanoma Peptides within Nanoliposomes. The six melanoma peptides that induce melanoma-reactive CD4^+ T cells in patients as well as their protein epitope and ideal pH range for solubility are provided in Table 1. A neutral formulation was initially chosen to encapsulate all peptides and then, through an iterative process, modified formulations to optimize encapsulation efficiencies for several of the peptides. Through this process, three different nanoliposome formulations (neutral, cationic, and anionic) suitable for distinct peptides were identified. However, all of the presently disclosed formulations contained the same base lipid components, including 1,2-distearoyl-sn-glycero-3-phosphocholine (DSPC); 1,2-Dioleoyl-sn-glycero-3-phosphoethanolamine (DOPE); 1,2-distearoyl-sn-glycero-3-phosphoethanolamine-N-[methoxy(polyethylene glycol)-2000] (ammonium salt) (PEG2000PE); KDO2; cholesterol; and a fluorophore (either rhodamine or 1,1′-Dioctadecyl-3,3,3′,3′-Tetramethylindodicarbocyanine, 4-Chlorobenzenesulfonate Salt (DiD)). Each formulation contained DSPC and DOPE at a 2.14:1 molar ratio to form a stable, spherical nanoparticle. In addition, cholesterol at a 30 molar percent was incorporated to increase rigidity and to reduce leakiness. PEG(2000)-PE at 2.5 molar percent was incorporated for biological stability, KDO2 was added to all formulations at 0.1 molar percent, and a fluorescent probe (rhodamine or DiD) was added at 0.2 molar percent for subsequent biodistribution imaging studies. Keeping the molar ratios of these key components constant, dihexadecyl phosphate (DHP) was incorporated at 10 molar percent for the anionic formulation and positively charged lipid 1,2-dioleoyl-3-trimethylammonium-propane (chloride salt) (DOTAP) at 7 molar percent for the cationic formulation. The lipid mixtures were then dried down in a nitrogen blower for roughly 2 hours until all of the chloroform was evaporated. Then, the peptide solutions, (or 1×PBS for the “ghost” formulation), was added to the dried down lipids, the tubes were then vortexed and placed in a heat shaker at 60° C. for 2 hours, followed by sonication in a 60° C. sonic bath for roughly five minutes. After sonication, the liposomes were extruded through a 100-nanometer pore membrane eleven times to create uniformly sized liposomes. The extruded liposomes were subsequently run through a Sepharose gel bead column to separate the liposomal drugs from the free drug. The solution was analyzed using Dynamic Light Scattering (DLS; polydispersity and average hydrodynamic diameter of particles in solution), and mass spectrometry.
(§2) To further ensure optimal encapsulation efficiency of the MHPs, distinct dissolution buffers tailored to each peptide's optimal pH range and previously optimized for in vivo injection of the free peptides into patients enrolled in earlier clinical studies were utilized. Specifically, for the neutral peptide formulations, 1.33 mg/ml sodium bicarbonate (NaHCO3) in a 1:2 solution of lactated Ringers solution (LR) and water respectively (B1); for the cationic formulation, 5 mg/ml NaHCO3 in water (B2); for the WNR anionic formulation, 1 mg/ml NaHCO3 in water (B3); and for the TSYVKVLHHMVKISG (TSY; SEQ ID NO: 1) anionic formulation, 1:9 ratio of 2-(N-morpholino) […] (MES) buffer and water (B4).

A short description of data set [2]: Peptide encapsulation within nanoliposomes (mass spectrometry). The conditions noted are these: for Original mass encapsulation: neutral formulation and 1X PBS; for Optimized mass encapsulation: new liposome formulation (charge and buffer B1-B4) keeping optimal pH, full vaccine, n = 3 separate experiments in triplicate; for Encap. Efficiency: optimized formulation, based upon initial 500 μg/ml peptide concentration; for Encap. improvement: optimized versus original mass encapsulation. The format is physicochemical.
Source text: as §1, §2
Each of the six Melanoma Helper Peptides (6MHP) were initially incorporated in a neutral liposome formulation containing: (DSPC); (DOPE); (PEG2000PE); KDO2; cholesterol; and a fluorophore in ratios of 4.60:2.14:0.25:0.01:3.00:0.02 respectively (see Table 2). After quantifying initial encapsulation masses, an iterative approach was utilized to improve encapsulation via modifying the charge and lipid ratios of the liposomal formulation as well as the buffer for the peptide. The proportional improvements in encapsulation as well as the encapsulation efficiencies are depicted in Table 3.

Another data set has as its system SIN lymphocytes. The experiment in a line: Lymphocyte viability, live-dead marker and flow cytometry. Conditions: patient SIN samples; free TSY compared with nanoliposomal KDO2/TSY. The format is cell-based, human. From the text:
(§3) Ex Vivo Lymphocyte Stimulation using Immunogenic TSY encapsulated nanoliposomes. Freshly obtained (cryopreserved) peripheral blood mononuclear cells (PBMC) and lymphocytes from the sentinel immunized nodes (SIN) of two patient donors (under IRB protocols, clinical trial Mel41 (NCT00089219; IRB #10464; Slingluff et al., 2008b) were utilized to assess CD4^+ T cell proliferation after treatment with the anionic TSY (MAGE-3281-295 peptide; Table 1) MIP-KDO2 nanoliposome. Firstly, a cell viability study was performed using a live-dead marker and flow cytometry to ensure that cell viability was not impacted by the presence of either the peptides or the liposomes. In this study, SIN lymphocytes from the two patient donors (SIN1 and SIN2) were treated with a variety of free peptides and liposome combinations. […] Cells were acquired on a FACSCANTO™ II flow cytometer (BD Biosciences) maintained by the Carter Immunology Center at the University of Virginia and the data analyzed using FlowJo software (version 10; BD Biosciences).
(§4) Using blood samples from melanoma patients who had previously been vaccinated with a 6MHP vaccine on the Mel41 trial and had developed a robust CD4^+ T cell immune response to the TSY antigen (Slingluff et al., 2008b), lymphocyte viability and CD4^+ T cell proliferation to the TSY nano-formulations ex vivo were analyzed. […]

The test system of data set [3] is CD4^+ T cells from sentinel immunized nodes (SIN1, SIN2). The experiment in a line: CFSE dye-dilution CD4+ T cell proliferation assay, sentinel immunized node cells. The format is cell-based, human. The conditions noted are these: SIN1 and SIN2 donor cells, 2 μg/mL peptide, 5 days.
Source text: as §3, §4

On to “RNGYRALMDKSLHVGTQCALTRR (listed as Homo sapiens) [melanoma helper peptide, amino acids 51-73 of human Melan-A/MART-1]”, for which the “Ideal pH range” value in data set [1] is on record as 6.0-8.0. In data set [2], the Original mass encapsulation came to 22.37 ± 0.30 µg/mL, the Optimized mass encapsulation came out at 19.18 ± 6.36 µg/mL, the “Encap. Efficiency” value came out at 3.29% and the Encap. improvement is on record as 0.85X.

For “TSYVKVLHHMVKISG (listed as Homo sapiens) [melanoma helper peptide, amino acids 281-295 of human MAGE-3]”, the cell viability result in the data set with SIN lymphocytes was “no discernable differences in cell viability”. For the same sequence, the “Ideal pH range” value in data set [1] is 5.0-5.5. Moreover, the “CD4^+ T cell proliferation (CFSE dilution)” value in data set [3] is recorded as “expected CD4^+ T cell proliferation response was observed”. In data set [2], the Original mass encapsulation is 0.17 ± 0.001 µg/mL, the Optimized mass encapsulation came to 141.35 ± 2.18 µg/mL, the “Encap. Efficiency” value is reported as 28.27% and the Encap. improvement turned out to be 831X.

Consider “FLLHHAFVDSIFEQWLQRHRP (listed as Homo sapiens) [melanoma helper peptide, amino acids 386-406 of human tyrosinase]”, for which the “Ideal pH range” value in data set [1] is recorded as 6.0-8.0. For the same sequence, in data set [2], the Original mass encapsulation turned out to be 28.15 ± 2.05 µg/mL, the Optimized mass encapsulation was determined as 58.61 ± 4.96 µg/mL, the “Encap. Efficiency” value came out at 11.72% and the Encap. improvement is reported as 2.08X.

As for “AQNILLSNAPLGPQFP (listed as Homo sapiens) [melanoma helper peptide, amino acids 56-70 of human tyrosinase]”, the “Ideal pH range” value in data set [1] is reported as 8.5-9.0. In addition, in data set [2], the Original mass encapsulation was 0.02 ± 0.005 µg/mL, the Optimized mass encapsulation was determined as 6.25 ± 1.13 µg/mL, the “Encap. Efficiency” value is 1.25% and the Encap. improvement is 312X.

As for WNRQLYPEWTEAQRLD, the “Ideal pH range” value in data set [1] is 7.0-8.0. Moreover, in data set [2], the Original mass encapsulation stood at 4.81 ± 0.09 µg/mL, the Optimized mass encapsulation turned out to be 7.64 ± 0.99 µg/mL, the “Encap. Efficiency” value is 1.53% and the Encap. improvement was found to be 1.59X.

Turning to “LLKYRAREPVTKAE (listed as Homo sapiens) [melanoma helper peptide, amino acids 121-134 of human MAGE-1,2,3,6]”, the “Ideal pH range” value in data set [1] is recorded as 6.0-8.0. In data set [2], the Original mass encapsulation was determined as 34.56 ± 0.69 µg/mL, the Optimized mass encapsulation was 57.26 ± 14.39 µg/mL, the “Encap. Efficiency” value is reported as 11.45% and the Encap. improvement is 1.66X.
